Measured values reported in the supplement of paper PMC10567573.

B1: APBB1IP (parent)
chain: PPEPLSQVSMWDQRWQDHQPLLPI
B2: LARP4 (parent)
chain: WTVANMEEIKKLTTDPDLILEVLR

Variants of: B1
Test: protein stability index of a GFP-peptide fusion (GPS, HEK-293T) (PSI 1-6); higher = more stable
Settings: c terminus: a fixed tail appended
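Note: lentivirally expressed fusions sorted by FACS into six bins by GFP to DsRed ratio, PSI derived from sequencing read proportions per bin multiplied by bin number.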

Protein stability index of substitutions, site by site:
L22: Q 3.68 | N 3.55 | T 3.74 | W 2.4 | V 3.2 | Y 2.44 | I 2.49 | A 3.4 | S 3.55 | M 2.58 | C 3.5 | K 4.04 | D 3.89 | G 3.8 | R 3.54 | H 3.29 | F 2.77 | P 3.12
Q19: Y 2.44 | D 3.74 | W 2.21 | L 2.83 | A 3.04 | K 2.87 | M 2.72 | I 2.47 | F 2.89 | P 2.63 | E 3.48 | S 2.31 | C 2.61 | V 2.33 | N 3 | G 3.33 | H 2.48 | T 3.02 | R 3
P20: G 3.38 | S 3.37 | I 2.77 | H 3.23 | E 3.29 | K 2.05 | N 3.14 | A 2.75 | L 2.61 | D 3.33 | Y 2.33 | V 2.91 | M 3.03 | F 2.37 | R 2.8 | Q 3.26 | T 2.84 | C 2.95 | W 2.33
P23: E 3.03 | F 1.67 | I 2.04 | L 1.99 | W 1.36 | S 2.05 | M 2.08 | T 2.77 | A 2.05 | V 2.92 | C 3.48 | R 2.38 | Q 2.39 | N 3.23 | H 2.05 | K 2.62 | Y 2.06
H18: Y 3.2 | W 3.02
I24: C 2.69 | M 3.24 | S 3.55 | E 3.26 | F 2.72 | R 3.12 | V 3.29 | H 3.58 | Y 3.54 | Q 3.93 | K 3.92 | W 2.04 | L 3.26 | N 3.12 | A 3.26 | D 4.43 | G 4.44 | T 3.62 | P 3.79
L21: R 3.58 | T 3.93 | F 2.24 | G 3.76 | P 3.54 | Q 3.68 | H 3.39 | D 4.13 | K 3.44 | Y 3.33 | W 2.74 | M 3.4 | V 3.28 | I 2.58 | A 3.88 | N 3.88 | S 3.26 | E 4 | C 3.4

Variants of: B2
Test: as above
Settings: c terminus: a fixed tail appended

Protein stability index, by site and new letter:
A4: W 1.21 | L 1.9 | P 2.05 | C 1.92 | E 2.3 | N 2.59 | T 1.97 | G 2.06 | H 1.93 | S 1.9 | D 3.25 | F 1.69 | V 1.43 | M 1.5 | Q 2.61 | K 2.6 | Y 1.5 | R 2.45
E7: H 1.59 | T 1.91 | Q 2.28 | A 1.9 | C 1.58 | K 1.88 | V 1.93 | N 2.56 | F 2.55 | D 2.23 | Y 2.18 | R 1.44 | I 1.94 | S 1.7 | G 2.4 | M 1.2
T2: Y 1.05 | H 2.67 | P 3.13 | C 2.02 | S 2.58 | V 1.7 | M 1.48 | I 1.14 | N 2 | L 2.08 | A 1.42 | Q 1.95 | D 2.12 | F 1.94 | K 1.87 | W 2.11 | E 2.8 | G 2.28 | R 2.59
M6: A 1.33 | W 1.89 | V 1.73 | E 2.67 | S 2.57 | C 2.6 | Y 1.73 | Q 2.25 | N 2.67 | P 2.03 | K 1.89 | L 2.13 | I 1.63 | D 2.79 | F 1.69 | R 2.47 | G 1.59 | H 1.79
K10: A 2.12 | E 2.51 | W 2.68 | N 2.13 | F 1.93 | P 2 | G 1.99 | H 1.84 | V 2.07 | R 2.52 | Y 2.03 | S 2.07 | D 2.49 | T 1.71 | Q 2.88 | C 2.02 | M 2.56 | I 1.54 | L 2.68
E8: A 1.5 | P 1.82 | F 1.7 | R 2.37 | T 1.7 | W 1.36 | D 2.03 | L 3.14 | M 1.47 | C 2.25 | S 1.58 | Q 1.68 | Y 2.73 | I 1.72 | H 2.89 | N 2.03 | V 1.4 | G 1.56
V3: N 2.24 | A 3.11 | K 2.19 | R 1.24 | P 1.92 | M 2.29 | T 2.18 | D 3.05 | I 2.37 | F 2.32 | Q 2.62 | E 3.01 | Y 1.96 | L 2.41 | S 2.21 | H 2.5 | C 2.5
T13: A 2.24 | D 2.56 | C 1.88
K11: I 2.02 | M 1.81 | F 2.85 | L 2.13 | T 2.95 | G 2.22 | W 2.68 | D 3.96 | N 2.81 | A 1.7 | H 3.42 | Q 2.58 | P 2.46 | Y 3.77 | R 2.52 | V 2.29 | S 2.8 | E 3.99 | C 2.33
I9: Q 2.14 | Y 2.31 | G 2.43 | N 1.93 | C 2.27 | V 2.72 | F 1.87 | D 2.76 | P 2.49 | W 2.21 | R 2.5 | S 1.85 | H 2.65 | E 2.75 | A 2.38 | M 2.3 | K 2.5 | L 2.16 | T 1.71
L12: C 3.11 | V 2.9 | E 3.74 | M 2.06 | T 2.22 | K 2.62 | R 2.34 | A 2.17 | I 2.23 | Q 3.09 | G 2.6 | W 2.46 | D 3.37 | N 3.08 | F 2.97 | P 2.26 | S 2.97 | Y 2.62 | H 3.11
W1: P 2.71 | S 2.33 | D 3.04 | H 2.55 | A 1.9 | T 2.32 | I 2.25 | C 1.88 | L 2.14 | N 2.49 | E 2.75 | R 2.45 | G 2.63 | K 2.26 | Y 2.01 | M 2.88 | Q 2.91 | V 2.89 | F 2.74
N5: D 2.79 | S 1.66 | R 1.16 | G 1.64 | P 1.76 | C 2.04 | E 2.47 | V 1.85 | H 1.99 | L 2.55 | T 1.65 | K 2.05 | W 1.76 | Y 2.38 | A 1.29 | F 1.98 | Q 2.39
